# Source: article PMC9352680, “A comprehensive thermodynamic model for RNA binding by the Saccharomyces cerevisiae Pumilio protein PUF4”
# T1: PUF4 RNA-binding domain (Saccharomyces cerevisiae, UniProt P25339 537-888)
# T1 sequence: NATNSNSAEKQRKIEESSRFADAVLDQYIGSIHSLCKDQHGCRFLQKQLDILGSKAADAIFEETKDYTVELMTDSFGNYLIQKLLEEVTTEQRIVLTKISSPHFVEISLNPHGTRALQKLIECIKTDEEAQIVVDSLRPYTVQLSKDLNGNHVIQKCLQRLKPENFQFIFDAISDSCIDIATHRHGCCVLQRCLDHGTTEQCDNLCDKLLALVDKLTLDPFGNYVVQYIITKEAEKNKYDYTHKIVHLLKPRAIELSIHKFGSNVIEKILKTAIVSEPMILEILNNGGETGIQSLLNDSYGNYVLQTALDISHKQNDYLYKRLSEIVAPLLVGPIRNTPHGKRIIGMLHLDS
# Molecular target: T1, PUF4 RNA-binding domain
# Assay: Mg; RNA-MaP; 20 mM Na-HEPES pH 7.4, 30 mM KOAc, 0.75 mM MgCl2, 0.1% Tween-20, 5% glycerol, 0.1 mg/mL BSA, 2 mM DTT; 25 C; 0.0125-409.6 nM protein
# Details: tags: N-His6-TEV cleaved; C-SNAP kept, Cy3B-labelled; label: tethered on chip by stalled RNA polymerase
row,Binder,Kd [nM]
1,UCUCUUUGUAUCACUAUCUCUU (ssRNA) [Ib_S1_P5E.1_K5.1_C5.1_H5.1_A5.1_[T6C]_F5.1_[T8C]_T5.1],18
2,UCUCUUUGUGUUAUUAUCUCUU (ssRNA) [Ia_S1_P5E.1_K5.1_C5.1_H5.1_[A4G]_A5.1_F5.1_T5.1],30.7
3,Id_ii_S2_P5E.2_K5.1_C5.2_[C-2A]_[T-1C]_H5.1_A5.1_F5.1_T5.2_[T11A]_[A12C] (ssRNA) RNA: UUUGAUUAAUAUGAUAUCGUUCUUUCUACUGUAUUAUUAACUUCUUUCUCGAUAUCAUAUUAAUCUUU,5.62
4,Id_ii_S2_P5E.2_K5.1_C5.2_[C-2A]_[T-1C]_H5.1_A5.1_F5.1_T5.2_[A12C] (ssRNA) RNA: UUUGAUUAAUAUGAUAUCGUUCUUUCUACUGUAUUAUUAUCUUCUUUCUCGAUAUCAUAUUAAUCUUU,2.94
5,Id_ii_S2_P5E.2_K5.1_C5.2_[T-1C]_H5.1_A5.1_F5.1_T5.2_[A12C] (ssRNA) RNA: UUUGAUUAAUAUGAUAUCGUUCUUUCUCCUGUAUUAUUAUCUUCUUUCUCGAUAUCAUAUUAAUCUUU,1.5
6,Id_ii_S2_P5E.2_K5.1_C5.2_[T-1A]_H5.1_A5.1_F5.1_T5.2_[T11A]_[A12G] (ssRNA) RNA: UUUGAUUAAUAUGAUAUCGUUCUUUCUCAUGUAUUAUUAAGUUCUUUCUCGAUAUCAUAUUAAUCUUU,26.7
7,Id_ii_S2_P5E.2_K5.1_C5.2_[T-1A]_H5.1_A5.1_F5.1_T5.2_[A12T] (ssRNA) RNA: UUUGAUUAAUAUGAUAUCGUUCUUUCUCAUGUAUUAUUAUUUUCUUUCUCGAUAUCAUAUUAAUCUUU,3.27
8,Id_ii_S2_P5E.2_K5.1_C5.2_[C-2A]_[T-1C]_H5.1_A5.1_F5.1_T5.2_[T11A]_[A12T] (ssRNA) RNA: UUUGAUUAAUAUGAUAUCGUUCUUUCUACUGUAUUAUUAAUUUCUUUCUCGAUAUCAUAUUAAUCUUU,3.61
9,Id_ii_S2_P5E.2_K5.1_C5.2_[T-1G]_H5.1_A5.1_F5.1_T5.2_[A12T] (ssRNA) RNA: UUUGAUUAAUAUGAUAUCGUUCUUUCUCGUGUAUUAUUAUUUUCUUUCUCGAUAUCAUAUUAAUCUUU,1.54
10,Id_ii_S2_P5E.2_K5.1_C5.2_[T-1C]_H5.1_A5.1_F5.1_T5.2_[T11A]_[A12G] (ssRNA) RNA: UUUGAUUAAUAUGAUAUCGUUCUUUCUCCUGUAUUAUUAAGUUCUUUCUCGAUAUCAUAUUAAUCUUU,9.77
11,Id_ii_S2_P5E.2_K5.1_C5.2_[T-1G]_H5.1_A5.1_F5.1_T5.2_[T11G]_[A12C] (ssRNA) RNA: UUUGAUUAAUAUGAUAUCGUUCUUUCUCGUGUAUUAUUAGCUUCUUUCUCGAUAUCAUAUUAAUCUUU,2.28
12,Id_ii_S2_P5E.2_K5.1_C5.2_[T-1A]_H5.1_A5.1_F5.1_T5.2_[T11G]_[A12T] (ssRNA) RNA: UUUGAUUAAUAUGAUAUCGUUCUUUCUCAUGUAUUAUUAGUUUCUUUCUCGAUAUCAUAUUAAUCUUU,2.92
13,Id_ii_S2_P5E.2_K5.1_C5.2_[T-1A]_H5.1_A5.1_F5.1_T5.2_[T11A]_[A12T] (ssRNA) RNA: UUUGAUUAAUAUGAUAUCGUUCUUUCUCAUGUAUUAUUAAUUUCUUUCUCGAUAUCAUAUUAAUCUUU,4.3
14,Id_ii_S2_P5E.2_K5.1_C5.2_[T-1C]_H5.1_A5.1_F5.1_T5.2_[T11A] (ssRNA) RNA: UUUGAUUAAUAUGAUAUCGUUCUUUCUCCUGUAUUAUUAAAUUCUUUCUCGAUAUCAUAUUAAUCUUU,3.1
15,Id_ii_S2_P5E.2_K5.1_C5.2_H5.1_A5.1_F5.1_T5.2_[T11A]_[A12C] (ssRNA) RNA: UUUGAUUAAUAUGAUAUCGUUCUUUCUCUUGUAUUAUUAACUUCUUUCUCGAUAUCAUAUUAAUCUUU,4.41
16,Id_ii_S2_P5E.2_K5.1_C5.2_[C-2A]_[T-1A]_H5.1_A5.1_F5.1_T5.2_[T11A]_[A12T] (ssRNA) RNA: UUUGAUUAAUAUGAUAUCGUUCUUUCUAAUGUAUUAUUAAUUUCUUUCUCGAUAUCAUAUUAAUCUUU,20.4
17,Id_ii_S2_P5E.2_K5.1_C5.2_[T-1C]_H5.1_A5.1_F5.1_T5.2_[A12G] (ssRNA) RNA: UUUGAUUAAUAUGAUAUCGUUCUUUCUCCUGUAUUAUUAUGUUCUUUCUCGAUAUCAUAUUAAUCUUU,2.27
18,Id_ii_S2_P5E.2_K5.1_C5.2_[C-2A]_H5.1_A5.1_F5.1_T5.2_[A12C] (ssRNA) RNA: UUUGAUUAAUAUGAUAUCGUUCUUUCUAUUGUAUUAUUAUCUUCUUUCUCGAUAUCAUAUUAAUCUUU,3.2
19,Id_ii_S2_P5E.2_K5.1_C5.2_[C-2A]_H5.1_A5.1_F5.1_T5.2_[T11A]_[A12C] (ssRNA) RNA: UUUGAUUAAUAUGAUAUCGUUCUUUCUAUUGUAUUAUUAACUUCUUUCUCGAUAUCAUAUUAAUCUUU,6.07
20,Id_ii_S2_P5E.2_K5.1_C5.2_[C-2A]_H5.1_A5.1_F5.1_T5.2_[A12G] (ssRNA) RNA: UUUGAUUAAUAUGAUAUCGUUCUUUCUAUUGUAUUAUUAUGUUCUUUCUCGAUAUCAUAUUAAUCUUU,5.06
21,Id_ii_S2_P5E.2_K5.1_C5.2_[T-1G]_H5.1_A5.1_F5.1_T5.2_[T11G]_[A12T] (ssRNA) RNA: UUUGAUUAAUAUGAUAUCGUUCUUUCUCGUGUAUUAUUAGUUUCUUUCUCGAUAUCAUAUUAAUCUUU,1.86

row,Binder,Kd [nM]
1,Id_ii_S2_P5E.2_K5.1_C5.2_[T-1A]_H5.1_A5.1_F5.1_T5.2_[T11G]_[A12C] (ssRNA) RNA: UUUGAUUAAUAUGAUAUCGUUCUUUCUCAUGUAUUAUUAGCUUCUUUCUCGAUAUCAUAUUAAUCUUU,2.55
2,Id_ii_S2_P5E.2_K5.1_C5.2_[T-1G]_H5.1_A5.1_F5.1_T5.2_[T11A]_[A12T] (ssRNA) RNA: UUUGAUUAAUAUGAUAUCGUUCUUUCUCGUGUAUUAUUAAUUUCUUUCUCGAUAUCAUAUUAAUCUUU,2.03
3,Id_ii_S2_P5E.2_K5.1_C5.2_[C-2A]_H5.1_A5.1_F5.1_T5.2_[T11A]_[A12T] (ssRNA) RNA: UUUGAUUAAUAUGAUAUCGUUCUUUCUAUUGUAUUAUUAAUUUCUUUCUCGAUAUCAUAUUAAUCUUU,5.79
4,Id_ii_S2_P5E.2_K5.1_C5.2_[T-1G]_H5.1_A5.1_F5.1_T5.2_[A12C] (ssRNA) RNA: UUUGAUUAAUAUGAUAUCGUUCUUUCUCGUGUAUUAUUAUCUUCUUUCUCGAUAUCAUAUUAAUCUUU,2.68
5,Id_ii_S2_P5E.2_K5.1_C5.2_[C-2A]_H5.1_A5.1_F5.1_T5.2_[A12T] (ssRNA) RNA: UUUGAUUAAUAUGAUAUCGUUCUUUCUAUUGUAUUAUUAUUUUCUUUCUCGAUAUCAUAUUAAUCUUU,2.99
6,Id_ii_S2_P5E.2_K5.1_C5.2_H5.1_A5.1_F5.1_T5.2_[T11A]_[A12T] (ssRNA) RNA: UUUGAUUAAUAUGAUAUCGUUCUUUCUCUUGUAUUAUUAAUUUCUUUCUCGAUAUCAUAUUAAUCUUU,1.79
7,Id_ii_S2_P5E.2_K5.1_C5.2_[C-2A]_[T-1A]_H5.1_A5.1_F5.1_T5.2_[T11A]_[A12C] (ssRNA) RNA: UUUGAUUAAUAUGAUAUCGUUCUUUCUAAUGUAUUAUUAACUUCUUUCUCGAUAUCAUAUUAAUCUUU,19
8,Id_ii_S2_P5E.2_K5.1_C5.2_H5.1_A5.1_F5.1_T5.2_[T11G]_[A12C] (ssRNA) RNA: UUUGAUUAAUAUGAUAUCGUUCUUUCUCUUGUAUUAUUAGCUUCUUUCUCGAUAUCAUAUUAAUCUUU,1.71
9,Id_ii_S2_P5E.2_K5.1_C5.2_[T-1C]_H5.1_A5.1_F5.1_T5.2_[A12T] (ssRNA) RNA: UUUGAUUAAUAUGAUAUCGUUCUUUCUCCUGUAUUAUUAUUUUCUUUCUCGAUAUCAUAUUAAUCUUU,0.992
10,Id_ii_S2_P5E.2_K5.1_C5.2_[C-2A]_[T-1C]_H5.1_A5.1_F5.1_T5.2_[A12T] (ssRNA) RNA: UUUGAUUAAUAUGAUAUCGUUCUUUCUACUGUAUUAUUAUUUUCUUUCUCGAUAUCAUAUUAAUCUUU,2.49
11,Id_ii_S2_P5E.2_K5.1_C5.2_[C-2A]_[T-1A]_H5.1_A5.1_F5.1_T5.2_[A12C] (ssRNA) RNA: UUUGAUUAAUAUGAUAUCGUUCUUUCUAAUGUAUUAUUAUCUUCUUUCUCGAUAUCAUAUUAAUCUUU,9.68
12,Id_ii_S2_P5E.2_K5.1_C5.2_[T-1G]_H5.1_A5.1_F5.1_T5.2_[T11A]_[A12C] (ssRNA) RNA: UUUGAUUAAUAUGAUAUCGUUCUUUCUCGUGUAUUAUUAACUUCUUUCUCGAUAUCAUAUUAAUCUUU,6.1
13,Id_ii_S2_P5E.2_K5.1_C5.2_[T-1G]_H5.1_A5.1_F5.1_T5.2_[T11A] (ssRNA) RNA: UUUGAUUAAUAUGAUAUCGUUCUUUCUCGUGUAUUAUUAAAUUCUUUCUCGAUAUCAUAUUAAUCUUU,3.97
14,Id_ii_S2_P5E.2_K5.1_C5.2_[T-1A]_H5.1_A5.1_F5.1_T5.2_[A12C] (ssRNA) RNA: UUUGAUUAAUAUGAUAUCGUUCUUUCUCAUGUAUUAUUAUCUUCUUUCUCGAUAUCAUAUUAAUCUUU,2.97
15,Id_ii_S2_P5E.2_K5.1_C5.2_[T-1C]_H5.1_A5.1_F5.1_T5.2_[T11A]_[A12T] (ssRNA) RNA: UUUGAUUAAUAUGAUAUCGUUCUUUCUCCUGUAUUAUUAAUUUCUUUCUCGAUAUCAUAUUAAUCUUU,1.44
16,Id_ii_S2_P5E.2_K5.1_C5.2_[T-1A]_H5.1_A5.1_F5.1_T5.2_[T11A]_[A12C] (ssRNA) RNA: UUUGAUUAAUAUGAUAUCGUUCUUUCUCAUGUAUUAUUAACUUCUUUCUCGAUAUCAUAUUAAUCUUU,4.53
17,Id_ii_S2_P5E.2_K5.1_C5.2_[T-1C]_H5.1_A5.1_F5.1_T5.2_[T11A]_[A12C] (ssRNA) RNA: UUUGAUUAAUAUGAUAUCGUUCUUUCUCCUGUAUUAUUAACUUCUUUCUCGAUAUCAUAUUAAUCUUU,3.51
18,Id_ii_S2_P5E.2_K5.1_C5.2_[C-2A]_[T-1C]_H5.1_A5.1_F5.1_T5.2_[A12G] (ssRNA) RNA: UUUGAUUAAUAUGAUAUCGUUCUUUCUACUGUAUUAUUAUGUUCUUUCUCGAUAUCAUAUUAAUCUUU,31.6
19,UCUCUUUGUAUAACUAUCUCUU (ssRNA) [Ic_S1_P5E.1_K5.1_C5.1_H5.1_A5.1_[T6A]_F5.1_[T8C]_T5.1],8.58
20,UCUCUUUGUAUCAAUAUCUCUU (ssRNA) [Ib_S1_P5E.1_K5.1_C5.1_H5.1_A5.1_[T6C]_F5.1_[T8A]_T5.1],13.4
21,UCUCUUUGUAUGACUAUCUCUU (ssRNA) [Ib_S1_P5E.1_K5.1_C5.1_H5.1_A5.1_[T6G]_F5.1_[T8C]_T5.1],31.2
